The values that follow come from the supplement of paper PMC12764529.

Series [1] in a line: folding stability dG unfold from chymotrypsin proteolysis; higher = more stable. The procedure, abridged: (§1)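 Sequencing followed digestion of designed mini-proteins with trypsin and chymotrypsin, each at 11 concentrations in threefold dilutions together with a no-protease condition. The mini-proteins were under 80 residues, had no cysteine, sat in a PA-tagged cDNA display construct, and were kept only if AlphaFold2 dimer inter-PAE was above 15. From the counts, Bayesian fitting gave K50, and unfolding free energy was derived against a sequence-predicted unfolded-state K50 and a shared folded-state K50, per protease or combined.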

The nature of series [2]: folding stability dG unfold from trypsin proteolysis; higher = more stable. The procedure, abridged: as §1
Series [3] in a line: folding stability dG unfold (combined trypsin and chymotrypsin); higher = more stable. The procedure, abridged:
as §1

± gives the half width of the 95% confidence interval.

Turning to “SAGGPKKAIEILKKEGFTIKSVDPKKKKVIATPKETDIPIEIYVIGDDKVLIVEYLKGKPIIKEFKKSAGGS [r16_197_TrMRF]”, the “folding stability dG unfold” value stood at 0.741 ± 0.12 kcal/mol in series [1], 0.834 ± 0.04 kcal/mol in series [2] and 0.829 ± 0.15 kcal/mol in series [3].
On to “SAGGPKPGEKWIARTKEGLVPITLEGDKVTITDALTGKKTVIPIPGASLEEIKELLLSEPDYEVYPESAGGS [r16_583_JUSTAS]”, for which the “folding stability dG unfold” value in series [1] was -0.737 ± 0.32 kcal/mol; in series [2], -0.603 ± 0.37 kcal/mol; in series [3], -0.404 ± 0.19 kcal/mol.
The like results for “SAGGPKVVRIRYTMPPDQARDFIEELFGRPMSADDIADKLPPGFKVGIRAHPNPNGHVTFEIWIKLPDSAGG [r13_869_TrROS]” were, in that order, 3.068 ± 0.021 kcal/mol, 2.37 ± 0.062 kcal/mol and 2.93 ± 0.11 kcal/mol.
In the case of “SAGGPLEVTLVESETTFLPEGKVVTREVTRLPDDTILVTTYTTTIDPNSGTTTTTSETVVLPAGAALSAGGS [r16_639_JUSTAS]”, the “folding stability dG unfold” value in series [1] worked out at 0.627 ± 0.068 kcal/mol; in series [2], 2.11 ± 0.046 kcal/mol; in series [3], 1.49 ± 0.032 kcal/mol.
The like results for “SAGGPLTLEDLKNMPPGEKLEFTFGGYTYEVEIYKNDNGPPYITVKQRDPHDGEPVEEKRVPADDIVSAGGS [r16_763_TrROS]” were, in that order, 1.92 ± 0.026 kcal/mol, 0.956 ± 0.032 kcal/mol and 1.58 ± 0.058 kcal/mol.
The like results for “SAGGPLTLEFTLPNGDEVGDVTVEPLPDDSYIVTVVAEDKDRPGVYYVSLVRIPPTDRTLEVVSGPVYSAGG [r13_370_TrMRF]” were, in that order, 1.24 ± 0.12 kcal/mol, 1.12 ± 0.02 kcal/mol and 1.2 ± 0.064 kcal/mol.
The like results for “SAGGPLTLTIPLPDGTTITVTLTRNPDTPSYTATADITFPDGSVVRIHATINSDGSITIHSVEVFPASAGGS [r16_213_TrMRF]” were, in that order, 5.06 ± 0.24 kcal/mol, 4.51 ± 0.57 kcal/mol and 5.19 ± 0.18 kcal/mol.
Consider “SAGGPMPLDDIEIHNVWPYKGEYWMVMITVPNNGKEIMIPWDDLDELLENDPNVEVDVMPIKPGQPMSAGGS [r16_61_TrROS]”, for which the “folding stability dG unfold” value is 1.21 ± 0.061 kcal/mol in series [1], 1.12 ± 0.04 kcal/mol in series [2] and 1.25 ± 0.083 kcal/mol in series [3].
Taken in the same sequence, the figures for “SAGGPMRRVKVEIKDPDGGKIEIDDVYVPDNSVWAKIFLPDLGREIPFPFDTPDQAVEWIKDFVLQLSAGGS [r16_736_TrROS]” were 1.15 ± 0.21 kcal/mol, 0.482 ± 0.099 kcal/mol and 0.929 ± 0.29 kcal/mol.
Take “SAGGPMYIVIKVEVWNPDNGKKREINIVIPIPPGMTPEQMLEKAKELARTIAEENGYEVRIDEIHIFSAGGS [r8_312_TrROS]”: the “folding stability dG unfold” value in series [1] stood at 2.862 ± 0.02 kcal/mol; in series [2], 3.13 ± 0.087 kcal/mol; in series [3], 3.03 ± 0.098 kcal/mol.
The like results for “SAGGPNVPIRIRVTIERQDPDGEPKDFEFPIEYPMPPDDPEQAKEQIEELAESIAEKHGYKVEIEIEPSAGG [r13_853_TrROS]” were, in that order, -0.45 ± 0.29 kcal/mol, -0.664 ± 0.18 kcal/mol and -0.627 ± 0.55 kcal/mol.
As to “SAGGPPIKKAEIKEIYPEKGIINAIIELEDIPKPYEAIGIITDEKEGIIFVEIINPEGGPPLYFTIKASAGG [r13_337_TrMRF]”, the “folding stability dG unfold” value in series [1] is 1.09 ± 0.1 kcal/mol; in series [2], 0.928 ± 0.033 kcal/mol; in series [3] it was 0.972 ± 0.22 kcal/mol.
The like results for “SAGGPPIRIKVELWDPNGKEYTHTFPFGEPLDQILDNASKQFGLPLRVEDIEYDPDGMITITIRIPDSAGGS [r8_285_TrROS]” were, in that order, 1.77 ± 0.027 kcal/mol, 1.75 ± 0.036 kcal/mol and 1.8 ± 0.1 kcal/mol.
The like results for “SAGGPPRTVTVFVNDPDGNTYTFTFSDSVPLSTVVANVSKTLGVPLTVDSVTVHPDGTVTITVTNPGSAGGS [r8_285_TrMRF]” were, in that order, 5 ± 0.06 kcal/mol, 4.57 ± 0.14 kcal/mol and 4.96 ± 0.062 kcal/mol.
The like results for “SAGGPPVTLTLTLTFTETRTVRNPATGETVTVEKVTLTLTITLEPGMSKEQLEALLKELRELFPSLESAGGS [r8_306_TrROS_Hall]” were, in that order, 5.15 ± 0.28 kcal/mol, 3.53 ± 0.25 kcal/mol and 5.11 ± 0.29 kcal/mol.
With “SAGGPPWVRVVDVRIEPVEDGGERRITLTFPPDVTLEEVRERVREMLPPGAEAELTVERVEVRPVLASAGGS [r16_393_JUSTAS]”, the “folding stability dG unfold” value in series [1] stood at 1.56 ± 0.019 kcal/mol; in series [2], 1.27 ± 0.016 kcal/mol; in series [3] it was 1.49 ± 0.04 kcal/mol.
The like results for “SAGGPRVEPLPLRVTYEDGVPPREVTVPLLAVTALDPETGEPVTFVNPGSLEVLAALLPPSVVSFDFSAGGS [r16_522_TrMRF]” were, in that order, 0.703 ± 0.066 kcal/mol, 0.714 ± 0.012 kcal/mol and 0.755 ± 0.05 kcal/mol.
Taken in the same sequence, the figures for “SAGGPRVFRLTYLDPETGEPRELRFSLPVPPAPDFISVYVNVPPELARRIAELLRELYPDKPVLVHRSAGGS [r8_437_TrMRF]” were 2.971 ± 0.019 kcal/mol, 2 ± 0.036 kcal/mol and 2.68 ± 0.049 kcal/mol.
Taken in the same sequence, the figures for “SAGGPSVDIDPRLNEDGTPYVLATLHIVPVHSDGSSSSADIPVVFDSLDDLLAFVKAISPGSAKVSLSAGGS [r16_652_TrMRF]” were 1.27 ± 0.083 kcal/mol, 0.42 ± 0.067 kcal/mol and 0.959 ± 0.058 kcal/mol.
With “SAGGPTIRLLVLPNKAEEVAEAIKKEFGAEVKILRVEPYPLPGPDGKVLKPVYLVEIEVKVKDPRLPLSAGG [r13_943_TrMRF]”, the “folding stability dG unfold” value amounted to 1.3 ± 0.14 kcal/mol in series [1], 1.17 ± 0.051 kcal/mol in series [2] and 1.29 ± 0.17 kcal/mol in series [3].
The like results for “SAGGPVETPGPHPLRPVPVVEPKKVVVTYPDLSPEEAAALAAELEAQGATTSFDPATGTLTVTLTGLSAGGS [r16_765_JUSTAS]” were, in that order, 3 ± 0.038 kcal/mol, 1.12 ± 0.043 kcal/mol and 2.58 ± 0.072 kcal/mol.
With “SAGGPWVVIKIRTPNKPIEIPIPGFKIENTGDSMTIVFPPDDPDQVLDALEKASPGIKITKIEVVKPSAGGS [r8_490_TrROS]”, the “folding stability dG unfold” value was determined as 0.318 ± 0.12 kcal/mol in series [1], 0.65 ± 0.06 kcal/mol in series [2] and 0.575 ± 0.1 kcal/mol in series [3].
The like results for “SAGGPYEFWFTITIDYPDLTPKQAVEEARKILRKLGFEITDIPVQVDPDPGWITVMARITIRPPEDASAGGS [r16_287_TrROS]” were, in that order, 3.98 ± 0.044 kcal/mol, 3.31 ± 0.063 kcal/mol and 3.58 ± 0.16 kcal/mol.
Taken in the same sequence, the figures for “SAGGPYYEWEIKLPDNKTISITMRRNPENGRPQHTVTIHDPEKGKPVKEHPFDSPEEAEELIEEGLLSAGGS [r8_450_TrROS]” were 0.445 ± 0.21 kcal/mol, -0.0517 ± 0.16 kcal/mol and 0.287 ± 0.35 kcal/mol.
Taken in the same sequence, the figures for “SAGGRAEEFATFLAELLRALLPPGEKVRATAVVTPEGVVVRVEHPLGFVAEALVKGDKLVRLELRPVSAGGS [r8_287_TrMRF]” were 3.82 ± 0.09 kcal/mol, 3.17 ± 0.13 kcal/mol and 3.6 ± 0.11 kcal/mol.
In the case of “SAGGRAVLLATFTTPDGSLVLVYEDPATGRVLVVSFDPSTGRVSVLRLRRVPNTGDLFIEDRATFPLSSAGG [r19_249_TrMRF]”, the “folding stability dG unfold” value in series [1] is 4.36 ± 0.12 kcal/mol; in series [2], 3.51 ± 0.059 kcal/mol; in series [3] it was 3.97 ± 0.12 kcal/mol.
Taken in the same sequence, the figures for “SAGGRIEVRPLEGSGAVLVRILDPELRKKLEEKFPDVTEILFPVEGAEDIPLEELRDRAIKEIEELIDSAGG [r19_298_TrMRF]” were 0.187 ± 0.056 kcal/mol, 1.4 ± 0.051 kcal/mol and 0.956 ± 0.059 kcal/mol.
